Assay results as given in patent publication US20170182124A1, “FGF21 Derivatives and Uses Thereof” (Novo Nordisk A/S, priority 2014, published 2017).
Read-outs that look alike come from different tables or passages of the source.

Columns and labels:
FGF receptor/BKL complex = test: FGF receptor potency in an Erk phosphorylation assay in HEK293 overexpressing human BKL; format: cell-based; conditions: for EC50: HEK293/BKL cells, pERK after 12 minutes
Protocol: In order to test the binding of the FGF21 derivatives to albumin, the assay was performed in the absence of serum albumin as well as in the presence of human serum albumin (HSA) (0.1% final assay concentration). An increase in EC50 value (decrease in potency) in the presence of serum albumin for FGF21 derivatives would indicate binding to serum albumin and represents a method to predict a protracted pharmacokinetic profile of the test substance in animal models. MetFGF21 (SEQ ID NO:2) is included for reference.
HEK293 cells endogenously express several FGF receptors, including FGFR1c, FGFR3c and FGFR4. These cells are unresponsive to FGF21 until transfected with the co-receptor beta-klotho (BKL). Activation of the FGF receptor/BKL complex leads to activation of the MAPK/ERK signalling pathway and phosphorylation of ERK. The level of phosphorylated ERK (pERK) at a given time point increases with increasing concentrations of FGF21. As described below the level of pERK is measured after 12 minutes of stimulation with a range of FGF21 analogue concentrations.
The HEK293/beta-klotho cells are seeded with 30.000 cells/well in 96 well plates in DMEM (BioWhittaker #BE12-604F/U1), supplemented with 10% FCS (Gibco #16140-071), 1% penicillin/streptomycin (Gibco #15140), 100 µg/ml Hygromycin B, (Calbiochem, # 400052). Two days later and 2 hours before addition of compound the cell medium is exchanged with 100 ∞l basal medium (DMEM (BioWhittaker #BE12-604F/U1)). The FGF21 analogues are diluted in assay medium (DMEM (BioWhittaker #BE12-604F/U1) supplemented with 0.02% Tween20), warmed to 37° C., added to the cells (100 μl) and incubated at 37° C. for 12 minutes. The FGF21 derivatives were also tested in the presence of 0.1% HSA (Sigma—A1887). All medium is quickly removed and 50 μl lysis buffer is added pr. well. The plate is shaken for 5 minutes and the lysate is ready for measurement of pERK. pERK is measured in 384 well plates with the AlphaScreen SureFire kit (PerkinElmer #TGRES10K). This kit is based on ERK and pERK specific antibodies coupled to donor and acceptor beads. The presence of pERK will bring acceptor and donor beads in close proximity and a signal is generated that is read on EnVision. The data are analysed using GraphPad Prism and the potency of the FGF21 proteins is described as absolute EC50 value.

3T3-L1 adipocytes = 3T3-L1 adipocytes (Mus musculus, UniProt P16092+Q99N32); test: Glucose uptake in 3T3-L1 adipocytes; format: cell-based; conditions: stimulated 20 hours, 3H-deoxy-glucose
3T3-L1 adipocytes, sequence (Q99N32 whole entry): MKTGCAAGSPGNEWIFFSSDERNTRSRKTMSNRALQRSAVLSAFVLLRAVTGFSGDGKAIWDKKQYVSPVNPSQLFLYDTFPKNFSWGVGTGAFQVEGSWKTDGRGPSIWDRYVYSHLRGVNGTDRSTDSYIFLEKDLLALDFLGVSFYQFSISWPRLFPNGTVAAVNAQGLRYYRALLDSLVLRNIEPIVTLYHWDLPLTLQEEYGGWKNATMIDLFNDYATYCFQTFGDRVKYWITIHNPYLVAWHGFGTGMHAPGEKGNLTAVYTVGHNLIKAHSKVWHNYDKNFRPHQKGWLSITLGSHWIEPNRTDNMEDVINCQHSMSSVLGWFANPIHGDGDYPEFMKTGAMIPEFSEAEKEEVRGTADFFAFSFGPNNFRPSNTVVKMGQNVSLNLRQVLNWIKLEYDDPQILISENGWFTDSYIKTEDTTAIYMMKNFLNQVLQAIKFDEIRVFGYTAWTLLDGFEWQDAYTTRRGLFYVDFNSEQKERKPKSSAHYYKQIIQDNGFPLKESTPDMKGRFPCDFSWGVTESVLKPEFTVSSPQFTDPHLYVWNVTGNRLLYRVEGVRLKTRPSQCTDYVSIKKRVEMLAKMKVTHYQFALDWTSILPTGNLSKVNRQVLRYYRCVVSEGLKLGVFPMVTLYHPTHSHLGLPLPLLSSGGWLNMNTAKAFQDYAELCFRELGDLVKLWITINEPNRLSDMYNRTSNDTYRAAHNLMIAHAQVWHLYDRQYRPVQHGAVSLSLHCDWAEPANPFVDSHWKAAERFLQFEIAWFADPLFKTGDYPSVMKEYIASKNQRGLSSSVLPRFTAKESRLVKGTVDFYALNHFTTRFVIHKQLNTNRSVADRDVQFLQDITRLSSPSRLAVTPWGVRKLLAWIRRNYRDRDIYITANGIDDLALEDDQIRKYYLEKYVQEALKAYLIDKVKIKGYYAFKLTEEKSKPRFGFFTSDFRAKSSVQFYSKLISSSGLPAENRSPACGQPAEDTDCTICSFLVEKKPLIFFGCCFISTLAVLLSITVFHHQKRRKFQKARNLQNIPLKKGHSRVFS
3T3-L1 adipocytes, sequence (P16092 22-822): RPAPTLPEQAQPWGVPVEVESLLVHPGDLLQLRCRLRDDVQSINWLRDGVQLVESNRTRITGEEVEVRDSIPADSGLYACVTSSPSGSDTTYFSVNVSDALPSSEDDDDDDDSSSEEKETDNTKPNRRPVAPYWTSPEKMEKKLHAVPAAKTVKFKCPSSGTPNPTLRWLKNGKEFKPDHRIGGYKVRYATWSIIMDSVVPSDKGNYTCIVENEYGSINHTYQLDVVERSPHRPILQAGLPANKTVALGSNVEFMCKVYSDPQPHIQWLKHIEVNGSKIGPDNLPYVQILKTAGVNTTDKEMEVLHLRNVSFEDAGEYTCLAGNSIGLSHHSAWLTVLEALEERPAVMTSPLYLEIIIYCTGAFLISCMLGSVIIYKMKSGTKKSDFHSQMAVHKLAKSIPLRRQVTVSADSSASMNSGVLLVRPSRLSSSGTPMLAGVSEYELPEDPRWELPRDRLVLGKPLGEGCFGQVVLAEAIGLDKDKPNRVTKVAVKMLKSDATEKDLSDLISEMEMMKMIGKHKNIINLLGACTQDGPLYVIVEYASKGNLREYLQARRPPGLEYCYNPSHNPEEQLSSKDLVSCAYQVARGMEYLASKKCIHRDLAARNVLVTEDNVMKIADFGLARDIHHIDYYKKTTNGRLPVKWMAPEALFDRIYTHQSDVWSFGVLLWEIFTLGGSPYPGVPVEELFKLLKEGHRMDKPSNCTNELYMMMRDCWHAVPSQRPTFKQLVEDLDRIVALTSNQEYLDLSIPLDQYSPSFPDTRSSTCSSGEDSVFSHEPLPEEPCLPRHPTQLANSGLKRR
Protocol: The C-terminal modified analogues were tested for their ability to increase glucose uptake in 3T3-L1 mouse adipocytes. The following assay was used for determining the biological activity, or potency, of FGF21 analogues and derivatives of the invention.
The in vitro potency may also be determined in an assay with mouse 3T3-L1 adipocytes by testing the FGF21 analogues and derivatives for their ability to increase glucose uptake into adipocytes. Differentiated 3T3-L1 adipocytes endogenously express FGFR1c and BKL. The 3T3-L1 cells are unresponsive to FGF21 until after differentiated as differentiation lead to expression of the co-receptor BKL. Activation of the FGFR1 receptor/BKL complex increase the expression of glucose transporter 1 (GLUT1) and therefore FGF21 agonists will lead to an increased amount of glucose taken into the adipocytes in a dose responsive manner.
Mouse 3T3-L1 fibroblasts (e.g. available from ATCC, catalogue no. CL-173) were maintained in basal medium (DMEM (4500 mg/I Glucose) with 10% Fetal Bovine Serum (FBS) and 1% Penicillin/Streptomycin). The cells are not allowed to reach confluence and should be passed (transferred to new vials) before reaching approx. 60% of confluency (by visual inspection).
For the glucose uptake assay, cells were 15.000 cells/well in a 96 well plate (BIOCOAT), and when they reached confluency (high density, with a view to have differentiated adipose cells made), the medium was changed from basal medium to basal medium containing Troglitazone, IBMX, Dexamethasone (commercially available from, e.g., Sigma) and human insulin (commercially available from, e.g., Novo Nordisk A/S).
The cells were used 7-9, days after initiation of differentiation. The cells were stimulated with increasing concentrations (0-300 nM) of the FGF21 analogues or derivatives of the invention for 20 hours in basal medium. Before addition of 3H-deoxy-glucose (in what follows: the tracer) the cells were washed in warm (approximately 37° C.) assay buffer (PBS with 1 mM MgCl2 and 2 mM CaCl2), HEPES and 0.1% Human serum albumin) and the cells were incubated with the tracer for 1 hour. This incubation was terminated by washing twice in ice cold assay buffer. The cells were lysed with Triton X-100 and lysates transferred to a 96 wells plate, microscint-40 (commercially available from, e.g., Perkin Elmer) was added and amount of tracer counted in a TOP-counter (e.g. a Packard top-counter from Perkin Elmer). The EC50 and Emax of the FGF21 compound in question were calculated. The results which are shown in tables 4-5 below indicate the EC50 (potency) and Emax (efficacy) of the FGF21 analogues and derivatives, respectively.

[1] = presence of 0.1% HSA, read-out: EC50 (0.1% HSA)

FGF receptor/BKL complex, sequence (Q86Z14 whole entry, one chain of several): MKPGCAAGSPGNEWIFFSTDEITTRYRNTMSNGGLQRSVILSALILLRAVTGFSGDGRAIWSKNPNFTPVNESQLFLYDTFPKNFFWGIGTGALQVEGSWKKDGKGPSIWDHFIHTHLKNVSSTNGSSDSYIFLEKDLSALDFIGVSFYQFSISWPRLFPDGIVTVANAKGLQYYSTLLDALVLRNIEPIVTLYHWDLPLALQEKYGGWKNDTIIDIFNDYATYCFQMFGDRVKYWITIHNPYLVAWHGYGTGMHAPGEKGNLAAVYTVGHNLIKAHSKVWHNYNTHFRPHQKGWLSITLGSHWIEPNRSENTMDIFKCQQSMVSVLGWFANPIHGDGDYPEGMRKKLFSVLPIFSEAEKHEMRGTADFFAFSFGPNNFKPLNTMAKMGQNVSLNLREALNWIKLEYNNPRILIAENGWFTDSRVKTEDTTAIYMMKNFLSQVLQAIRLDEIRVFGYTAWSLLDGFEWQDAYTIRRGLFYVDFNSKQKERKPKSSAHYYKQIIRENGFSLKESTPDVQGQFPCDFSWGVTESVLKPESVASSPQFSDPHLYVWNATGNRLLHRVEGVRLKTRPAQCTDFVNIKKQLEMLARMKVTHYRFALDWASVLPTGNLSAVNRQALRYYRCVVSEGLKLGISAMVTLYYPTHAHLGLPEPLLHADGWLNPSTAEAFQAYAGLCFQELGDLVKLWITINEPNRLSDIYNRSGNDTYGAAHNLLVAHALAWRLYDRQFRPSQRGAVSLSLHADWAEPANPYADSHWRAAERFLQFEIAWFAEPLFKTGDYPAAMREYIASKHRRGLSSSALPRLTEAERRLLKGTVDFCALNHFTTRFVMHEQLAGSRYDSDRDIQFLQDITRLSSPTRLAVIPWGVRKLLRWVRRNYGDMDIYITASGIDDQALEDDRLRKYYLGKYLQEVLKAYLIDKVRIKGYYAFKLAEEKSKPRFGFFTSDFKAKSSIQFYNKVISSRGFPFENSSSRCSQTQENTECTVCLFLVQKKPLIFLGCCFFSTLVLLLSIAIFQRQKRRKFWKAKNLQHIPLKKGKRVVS

## S{Beta-178}-[2-[2-[[2-[2-[2-[[2-[2-[2-[[(4S)-4-carboxy-4-(15-carboxypentadecanoyl-amino)butanoyl]amino]ethoxy]ethoxy]acetyl]amino]ethoxy]ethoxy]acetyl]amino]-ethylamino]-2-oxoethyl]-Ala[Gln121,Leu168,Cys178]FGF21 [Compound 11]
FGF receptor/BKL complex; absence of HSA, read-out: EC50
  EC50: 167 nM
FGF receptor/BKL complex; [1]
  EC50: 137 nM
3T3-L1 adipocytes
  EC50: 186 nM
  Glucose uptake Emax: 59%

B1: S{Beta-180}-2-aminoethylsulfanyl-Ala[Gln121, Leu168, Cys180]FGF21 (protein)
chain: AHPIPDSSPLLQFGGQVRQRYLYTDDAQQTEAHLEIREDGTVGGAADQSPESLLQLKALKPGVIQILGVKTSRFLCQRPDGALYGSLHFDPEACSFRELLLEDGYNVYQSEAHGLPLHLPGQKSPHRDPAPRGPARFLPLPGLPPALPEPPGILAPQPPDVGSSDPLSLVGPSQGRSPSYCS
modifications: N-terminal Ala; cysteamine disulfide on Cys180
FGF receptor/BKL complex; absence of HSA, read-out: EC50
  EC50: 2.3 nM
FGF receptor/BKL complex; absence of HSA
  potency in HEK293/BKL cells compared with MetFGF21 or corresponding analogue (in words): potency similar to both MetFGF21 and Compound 2
3T3-L1 adipocytes
  EC50: 2.6 nM
  Glucose uptake Emax: 102%

B2: S{Beta-178}-2-aminoethylsulfanyl-Ala[Gln121, Leu168, Cys178]FGF21 (protein)
chain: AHPIPDSSPLLQFGGQVRQRYLYTDDAQQTEAHLEIREDGTVGGAADQSPESLLQLKALKPGVIQILGVKTSRFLCQRPDGALYGSLHFDPEACSFRELLLEDGYNVYQSEAHGLPLHLPGQKSPHRDPAPRGPARFLPLPGLPPALPEPPGILAPQPPDVGSSDPLSLVGPSQGRSPCYAS
modifications: N-terminal Ala; cysteamine disulfide on Cys178
FGF receptor/BKL complex; absence of HSA, read-out: EC50
  EC50: 105 nM
3T3-L1 adipocytes
  EC50: 50 nM
  Glucose uptake Emax: 69%

B3: S{Beta-176}-2-aminoethylsulfanyl-Ala[Gln121, Leu168, Cys176]FGF21 (protein)
chain: AHPIPDSSPLLQFGGQVRQRYLYTDDAQQTEAHLEIREDGTVGGAADQSPESLLQLKALKPGVIQILGVKTSRFLCQRPDGALYGSLHFDPEACSFRELLLEDGYNVYQSEAHGLPLHLPGQKSPHRDPAPRGPARFLPLPGLPPALPEPPGILAPQPPDVGSSDPLSLVGPSQGRCPSYAS
modifications: cysteamine-protected Cys176
FGF receptor/BKL complex; absence of HSA, read-out: EC50
  EC50: 227 nM
3T3-L1 adipocytes
  EC50: 73 nM
  Glucose uptake Emax: 84%

B4: S{Beta-179}-2-aminoethylsulfanyl-Ala[Gln121, Leu168, Cys179]FGF21 (protein)
chain: AHPIPDSSPLLQFGGQVRQRYLYTDDAQQTEAHLEIREDGTVGGAADQSPESLLQLKALKPGVIQILGVKTSRFLCQRPDGALYGSLHFDPEACSFRELLLEDGYNVYQSEAHGLPLHLPGQKSPHRDPAPRGPARFLPLPGLPPALPEPPGILAPQPPDVGSSDPLSLVGPSQGRSPSCAS
modifications: N-terminal Ala; cysteamine disulfide on Cys179
FGF receptor/BKL complex; absence of HSA, read-out: EC50
  EC50: 69 nM
3T3-L1 adipocytes
  EC50: 25 nM
  Glucose uptake Emax: 77%

B5: S{Beta-181}-2-aminoethylsulfanyl-Ala[Gln121, Leu168, Cys181]FGF21 (protein)
chain: AHPIPDSSPLLQFGGQVRQRYLYTDDAQQTEAHLEIREDGTVGGAADQSPESLLQLKALKPGVIQILGVKTSRFLCQRPDGALYGSLHFDPEACSFRELLLEDGYNVYQSEAHGLPLHLPGQKSPHRDPAPRGPARFLPLPGLPPALPEPPGILAPQPPDVGSSDPLSLVGPSQGRSPSYAC
modifications: N-terminal Ala; cysteamine disulfide on Cys181
FGF receptor/BKL complex; absence of HSA, read-out: EC50
  EC50: 27 nM
FGF receptor/BKL complex; absence of HSA
  potency in HEK293/BKL cells compared with MetFGF21 or corresponding analogue (in words): only slightly decreased as compared to MetFGF21
3T3-L1 adipocytes
  EC50: 5 nM
  Glucose uptake Emax: 74%

B6: 4-[10-[[(1S)-4-[2-[2-[2-[2-[2-[2-[[(1S)-5-acetamido-1-carboxy-pentyl]amino]-2-oxo-ethoxy]ethoxy]ethylamino]-2-oxo-ethoxy]ethoxy]ethylamino]-1-carboxy-4-oxo-butyl]amino]-10-oxo-decoxy]benzoic … (protein)
chain: HPIPDSSPLLQFGGQVRQRYLYTDDAQQTEAHLEIREDGTVGGAADQSPESLLQLKALKPGVIQILGVKTSRFLCQRPDGALYGSLHFDPEACSFRELLLEDGYNVYQSEAHGLPLHLPGQKSPHRDPAPRGPARFLPLPGLPPALPEPPGILAPQPPDVGSSDPLSLVGPSQGRSPSYAC
FGF receptor/BKL complex; absence of HSA, read-out: EC50
  EC50: 26.4 nM
FGF receptor/BKL complex; [1]
  EC50: 138 nM

B7: 4-[10-[[4-[2-[2-[2-[2-[2-[2-[[(1S)-5-acetamido-1-carboxy-pentyl]amino]-2-oxo-ethoxy]ethoxy]ethylamino]-2-oxo-ethoxy]ethoxy]ethylamino]-4-oxo-butyl]sulfonylamino]-10-oxo-decoxy]benzoic … (protein)
chain: HPIPDSSPLLQFGGQVRQRYLYTDDAQQTEAHLEIREDGTVGGAADQSPESLLQLKALKPGVIQILGVKTSRFLCQRPDGALYGSLHFDPEACSFRELLLEDGYNVYQSEAHGLPLHLPGQKSPHRDPAPRGPARFLPLPGLPPALPEPPGILAPQPPDVGSSDPLSLVGPSQGRSPSYAC
FGF receptor/BKL complex; absence of HSA, read-out: EC50
  EC50: 24.7 nM
FGF receptor/BKL complex; [1]
  EC50: 132 nM

B8: 4-[10-[[(1S)-4-[2-[2-[2-[2-[2-[2-[[(1S)-5-acetamido-1-carboxy-pentyl]amino]-2-oxo-ethoxy]ethoxy]ethylamino]-2-oxo-ethoxy]ethoxy]ethylamino]-1-carboxy-4-oxo-butyl]amino]-10-oxo-decoxy]benzoic … (protein)
chain: HPIPDSSPLLQFGGQVRQRYLYTDDAQQTEAHLEIREDGTVGGAADQSPESLLQLKALKPGVIQILGVKTSRFLCQRPDGALYGSLHFDPEACSFRELLLEDGYNVYQSEAHGLPLHLPGQKSPHRDPAPRGPARFLPLPGLPPALPEPPGILAPQPPDVGSSDPLSLVGPSQGRSPSYCS
FGF receptor/BKL complex; absence of HSA, read-out: EC50
  EC50: 5 nM
FGF receptor/BKL complex; [1]
  EC50: 3 nM

B9: S{Beta-180}-2-aminoethylsulfanyl-Ala[Gln121, Leu168, Cys180, des181]FGF21 (protein)
chain: AHPIPDSSPLLQFGGQVRQRYLYTDDAQQTEAHLEIREDGTVGGAADQSPESLLQLKALKPGVIQILGVKTSRFLCQRPDGALYGSLHFDPEACSFRELLLEDGYNVYQSEAHGLPLHLPGQKSPHRDPAPRGPARFLPLPGLPPALPEPPGILAPQPPDVGSSDPLSLVGPSQGRSPSYC
modifications: N-terminal Ala; cysteamine disulfide on Cys180
FGF receptor/BKL complex; absence of HSA, read-out: EC50
  EC50: 20 nM
3T3-L1 adipocytes
  EC50: 73 nM
  Glucose uptake Emax: 72%
